For assay [1], the target named is T1, rhesus monkey CRTh2 (rhesus monkey, UniProt Q9Y5Y4 1-395 (human entry)).
T1 construct: also native on primary rhesus basophils and eosinophils; also called rhesus CRTh2
T1 chain: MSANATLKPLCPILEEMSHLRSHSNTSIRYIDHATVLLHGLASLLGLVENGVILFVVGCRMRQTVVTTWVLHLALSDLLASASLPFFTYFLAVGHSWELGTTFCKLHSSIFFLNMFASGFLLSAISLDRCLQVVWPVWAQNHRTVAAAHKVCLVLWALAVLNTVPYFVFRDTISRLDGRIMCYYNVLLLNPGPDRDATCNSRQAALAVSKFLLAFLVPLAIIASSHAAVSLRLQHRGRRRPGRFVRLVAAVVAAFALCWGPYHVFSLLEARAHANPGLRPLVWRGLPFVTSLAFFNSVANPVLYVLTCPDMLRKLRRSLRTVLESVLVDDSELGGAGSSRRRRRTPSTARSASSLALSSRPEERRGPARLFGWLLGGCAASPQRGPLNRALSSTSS
In words: flow cytometry, 293 cells expressing rhesus CRTh2 [Cont.]. In general terms: Flow cytometry measures light scatter and fluorescence of single cells or particles in a stream.

For assay [2], the target named is T2, cynomolgus monkey CRTh2 (cynomolgus monkey, UniProt Q9Y5Y4 1-395 (human entry)).
T2 construct: also native on primary cyno basophils and eosinophils; also called cyno CRTh2; cynomologous CRTh2
T2 chain: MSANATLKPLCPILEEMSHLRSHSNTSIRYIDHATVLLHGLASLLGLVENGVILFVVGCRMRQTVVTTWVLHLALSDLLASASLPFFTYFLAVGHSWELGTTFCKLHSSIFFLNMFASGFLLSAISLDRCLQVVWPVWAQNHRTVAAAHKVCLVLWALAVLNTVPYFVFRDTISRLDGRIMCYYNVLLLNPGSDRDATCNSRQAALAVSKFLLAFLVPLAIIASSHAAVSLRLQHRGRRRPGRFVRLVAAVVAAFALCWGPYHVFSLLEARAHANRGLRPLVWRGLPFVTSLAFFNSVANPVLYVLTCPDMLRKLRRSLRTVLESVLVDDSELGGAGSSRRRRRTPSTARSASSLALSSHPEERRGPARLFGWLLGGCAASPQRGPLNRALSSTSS
In words: flow cytometry, 293 cells expressing cynomolgus CRTh2 [Cont.].

For assay [3], the target named is T3, human CRTh2 (human, UniProt Q9Y5Y4 1-395).
T3 construct: also native CRTh2 on primary human basophils, eosinophils and Th2 cells; also called hCRTh2; chemoattractant receptor-homologous molecule expressed on T helper 2 cells
T3 sequence: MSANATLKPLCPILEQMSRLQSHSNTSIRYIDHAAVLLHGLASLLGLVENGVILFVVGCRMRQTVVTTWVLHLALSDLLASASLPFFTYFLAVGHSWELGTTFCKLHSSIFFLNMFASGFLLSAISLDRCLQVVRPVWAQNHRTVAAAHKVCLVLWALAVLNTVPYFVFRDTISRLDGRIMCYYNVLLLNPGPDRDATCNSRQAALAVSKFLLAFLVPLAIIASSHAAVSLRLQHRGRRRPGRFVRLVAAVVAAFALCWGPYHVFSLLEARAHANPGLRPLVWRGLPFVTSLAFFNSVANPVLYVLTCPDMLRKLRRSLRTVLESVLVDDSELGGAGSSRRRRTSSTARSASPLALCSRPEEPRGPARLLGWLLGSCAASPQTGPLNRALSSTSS
As to the kind of experiment: flow cytometry on basophils and eosinophils of human PBMC; antibody at 5 and 0.5 ug/ml, labelled anti-mouse IgG [Cont.].

Assay [4] has as its target T3, human CRTh2. As to the kind of experiment: radioligand cell binding assay with homologous competition (Scatchard), 293 cells expressing human CRTh2. The protocol: (§1) The equilibrium dissociation constants (KD) for anti-CRTH2 antibodies binding to cells expressing recombinant CRTh2 receptor were determined using a radioligand cell binding assay. […] The cells expressing the CRTh2 receptor were incubated for 2 hours at room temperature with a fixed concentration of iodinated anti-CRTh2 antibody combined with increasing concentrations of unlabeled anti-CRTh2 antibody and including a zero-added, buffer only sample. After the 2-hour incubation, the competition reactions were transferred to a Millipore Multiscreen filter plate and washed 4 times with binding buffer to separate the free from bound iodinated antibody. The filters were counted on a Wallac Wizard 1470 gamma counter. The binding data was evaluated using NewLigand software (Genentech), which uses the fitting algorithm of Munson and Rodbard to determine the binding affinity of the anti-CRTh2 antibody (Munson and Rodbard, Anal. Biochem, 1980; 107: 220-239).
(§2) To obtain a direct measurement of the KD value of humanized antibodies h19A2.v12 and h19A2.v60, Fab fragments of these antibodies were generated and subjected to radioligand cell binding assays (FIG. 4B).

Assay [5] addresses T1, rhesus monkey CRTh2. In words: flow cytometry, 293 cells expressing rhesus CRTh2; antibody at 0.55, 0.18, 0.06, 0.02 and 0.006 ug/ml [Cont.].
Assay [6] addresses T3, human CRTh2. In words: radioligand cell binding assay (Scatchard), Fab, 293 cells expressing human CRTh2. The procedure:
as §1, §2

The target of assay [7] is T2, cynomolgus monkey CRTh2. As to the kind of experiment: radioligand cell binding assay (Scatchard), Fab, 293 cells expressing cynomolgus monkey CRTh2. The protocol: After the 2-hour incubation, the competition reactions were transferred to a Millipore Multiscreen filter plate and washed 4 times with binding buffer to separate the free from bound iodinated antibody. The filters were counted on a Wallac Wizard 1470 gamma counter. The binding data was evaluated using NewLigand software (Genentech), which uses the fitting algorithm of Munson and Rodbard to determine the binding affinity of the anti-CRTh2 antibody (Munson and Rodbard, Anal. Biochem, 1980; 107: 220-239).
as §2
(§3) Radiolabeled ligand analysis with homologous competition was performed to assess the dissociation constant (KD) of anti-CRTh2 antibodies to surface expressed human and cynomolgus monkey CRTh2 on 293 cells. To obtain a direct measurement of the KD value of humanized antibodies h19A2.v52 and h19A2.v46, Fab fragments of these antibodies were generated (FIG. 16).

The target in assay [8] is T2, cynomolgus monkey CRTh2. In words: ratio of Scatchard KD values, cyno against human CRTh2 on 293 cells. The protocol:
The filters were counted on a Wallac Wizard 1470 gamma counter. The binding data was evaluated using NewLigand software (Genentech), which uses the fitting algorithm of Munson and Rodbard to determine the binding affinity of the anti-CRTh2 antibody (Munson and Rodbard, Anal. Biochem, 1980; 107: 220-239).
as §2, §3

Assay [9] addresses T3, human CRTh2. In words: flow cytometry, 293 cells expressing amino-terminal gD-tagged human CRTh2; antibody at 10, 1 and 0.1 ug/ml.

Where only a bound is given, the exact number is not on record here.

This is an account of results in US20160090422A1 (Genentech, published 2016).

B1: murine anti-CRTh2 antibody 3C12 (antibody, mouse IgG2a, V domains shown)
VH: QVQLQQSGADLVRPGTSVKVSCKASGYAFTNYLIDWVKQRPGQGLEWIGAIHPGSGRTHYNEKFKGKATLTADKSSSAAYMQISSLTSDDSAVFFCARSGGSSFDYYAMDYWGQGTSVTVSS
VL: DIQMTQSPSSLSASLGERVSLTCRASQEIGGYLSWLQQKPDGTFKRLIYAASTLDSGVPKRFSGSRSGSDYSLTISSLESEDFADYYCLQYANYPYTFGGGTKLEIK
notes: Mouse monoclonal (hybridoma antibody; heavy chain also recloned with mouse IgG2a Fc); also called mu3C12
For the molecule B1, the binding result is reported as “no binding (tested: 20 ug/ml)” with rhesus monkey CRTh2 [1], “no binding (tested: 20 ug/ml)” with cynomolgus monkey CRTh2 [2] and “binds” with human CRTh2 [3].

B2: murine anti-CRTh2 antibody 8B1 (antibody, V domains shown)
VH: QVQLQQSGTGLVRPGTSVRVSCKASGYAFITYLIEWIKQRPGQGLEWIGVIHPGSGNSHYNEKFKGKATLTADTSSSTAYMQLSSLTSGDSAVYFCARSGSSSFDYYAMDFWGQGTSVTVSS
VL: DIQMTQSPSSLSASLGERVSLTCRASQEISGYFSWLQQKPDGTIKRLIYAASTLDSGVPKRFSGSRSGSDYSLTISSLESEDFADYYCLQYANYPYTFGGGTKLEIK
notes: Mouse monoclonal, hybridoma antibody or recloned with mouse IgG2a Fc; whole IgG in the Scatchard assay; also called mu8B1; Mab 8B1
Consider B2, for which the Kd – broadly, the constant that tells how readily two partners part at equilibrium – in the assay with human CRTh2 [4] was determined as 2.6 nM.

B3: humanized affinity matured anti-CRTh2 antibody hu19A2.v46 (antibody, human IgG1, kappa, V domains shown)
VH: EVQLVESGGGLVQPGGSLRLSCAASGFTFSSYLMSWVRQAPGKGLEWVARISNGGSTTDYPGTVEGRFTISRDNSKNTLYLQMNSLRAEDTAVYYCARHRTNWDFDYWGQGTLVTVSS
VL: DIQMTQSPSSLSASVGDRVTITCRASENIYWNLAWYQQKPGKAPKLVVYAATQLADGVPSRFSGSGSGTDYTLTISSLQPEDFATYYCQHFWITPWTFGQGTKVEIKR
notes: Human IgG1; whole antibody as used in flow cytometry; also called h19A2.v46
Consider B3, for which the binding result with rhesus monkey CRTh2 [5] was “binds”.

B4: h19A2.v46 Fab fragment (Fab, V domains shown)
VH: EVQLVESGGGLVQPGGSLRLSCAASGFTFSSYLMSWVRQAPGKGLEWVARISNGGSTTDYPGTVEGRFTISRDNSKNTLYLQMNSLRAEDTAVYYCARHRTNWDFDYWGQGTLVTVSS
VL: DIQMTQSPSSLSASVGDRVTITCRASENIYWNLAWYQQKPGKAPKLVVYAATQLADGVPSRFSGSGSGTDYTLTISSLQPEDFATYYCQHFWITPWTFGQGTKVEIK
notes: Fab fragment of the humanized IgG; also called h19A2.v46 (Fab fragment of IgG)
For B4, the Kd is 6.4 nM with human CRTh2 [6] and 8.6 nM in the assay with cynomolgus monkey CRTh2 [7].

B5: h19A2.v52 Fab fragment (Fab, V domains shown)
VH: EVQLVESGGGLVQPGGSLRLSCAASGFTFSSYLMSWVRQAPGKGLEWVARISNGGSTTDYPGTVEGRFTISRDNSKNTLYLQMNSLRAEDTAVYYCARHRTNWDFDYWGQGTLVTVSS
VL: DIQMTQSPSSLSASVGDRVTITCRASENIYYNLAWYQQKPGKAPKLVVYAATQLADGVPSRFSGSGSGTDYTLTISSLQPEDFATYYCQHFWITPWTFGQGTKVEIK
notes: Fab fragment of the humanized IgG; also called h19A2.v52 (Fab fragment of IgG); h19A2.52
As for B5, the “relative binding affinity for human versus cynomolgus CRTh2” value with cynomolgus monkey CRTh2 [8] was not above 2 fold. For the same molecule, the values for the Kd with human CRTh2 [6] and in the assay with cynomolgus monkey CRTh2 [7] were 13.7 nM and 21.3 nM, respectively.

B6: humanized affinity matured anti-CRTh2 antibody hu19A2.v52 (antibody, human IgG1, kappa, V domains shown)
VH: EVQLVESGGGLVQPGGSLRLSCAASGFTFSSYLMSWVRQAPGKGLEWVARISNGGSTTDYPGTVEGRFTISRDNSKNTLYLQMNSLRAEDTAVYYCARHRTNWDFDYWGQGTLVTVSS
VL: DIQMTQSPSSLSASVGDRVTITCRASENIYYNLAWYQQKPGKAPKLVVYAATQLADGVPSRFSGSGSGTDYTLTISSLQPEDFATYYCQHFWITPWTFGQGTKVEIKR
notes: Human IgG1; whole antibody as used in flow cytometry and the cAMP assay; also called h19A2.v52; h19A2.52
Consider B6, for which the binding result with rhesus monkey CRTh2 [5] is on record as “binds”.

B7: h19A2.v12 Fab fragment (Fab, V domains shown)
VH: EVQLVESGGGLVQPGGSLRLSCAASGFTFSSYSMSWVRQAPGKGLEWVAYISNGGSTTDYPGTVEGRFTISRDNSKNTLYLQMNSLRAEDTAVYYCARHRTNWDFDYWGQGTLVTVSS
VL: DIQMTQSPSSLSASVGDRVTITCRASENIYWNLAWYQQKPGKAPKLVVYAATQLADGVPSRFSGSGSGTDYTLTISSLQPEDFATYYCQHFWITPWTFGQGTKVEIK
notes: Fab fragment of the humanized IgG, 125I-labelled in the radioligand assay; also called h19A2.v12 (Fab fragment of IgG); h19A2.12
B7: in the assay with cynomolgus monkey CRTh2 [8], the “relative binding affinity for human versus cyno CRTh2” value was not above 3 fold. For the same molecule, the Kd with human CRTh2 [6] was determined as 51 nM; in the assay with cynomolgus monkey CRTh2 [7], 152 nM.

B8: h19A2.v60 Fab fragment (Fab, V domains shown)
VH: EVQLVESGGGLVQPGGSLRLSCAASGFTFSSYLMSWVRQAPGKGLEWVARISNGGSTTDYPGTVEGRFTISRDNSKNTLYLQMNSLRAEDTAVYYCARHRTNWDFDYWGQGTLVTVSS
VL: DIQMTQSPSSLSASVGDRVTITCRASENIYYNLAWYQQKPGKAPKLLIYAATQLAEGVPSRFSGSGSGTDYTLTISSLQPEDFATYYCQHFWITPWTFGQGTKVEIK
notes: Fab fragment of the humanized IgG; also called h19A2.v60 (Fab fragment of IgG)
On to B8, for which the equilibrium dissociation constant (Kd) was 56 nM with human CRTh2 [6] and 39 nM with cynomolgus monkey CRTh2 [7].

B9: humanized anti-CRTh2 antibody hu19A2.v1 (antibody, human IgG1, kappa, V domains shown)
VH: EVQLVESGGGLVQPGGSLRLSCAASGFTFSSYSMSWVRQAPGKGLEWVAYISNGGSTTYYPGTVEGRFTISRDNSKNTLYLQMNSLRAEDTAVYYCARHRTNWDFDYWGQGTLVTVSS
VL: DIQMTQSPSSLSASVGDRVTITCRASENIYSNLAWYQQKPGKAPKLVVYAATQLADGVPSRFSGSGSGTDYTLTISSLQPEDFATYYCQHFWITPWTFGQGTKVEIKR
notes: also called h19A2.v1
Regarding B9, the binding result with human CRTh2 [9] is recorded as “binds”.

B10: murine anti-CRTh2 antibody 31A5 (antibody, mouse IgG2a, V domains shown)
VH: QVQLKESGPGLVAPSQSLSITCTVSGFSLTGYGVNWVRQPPGKGLEWLGMIWDDGTTDFDSALRSRLSISKDNSKSQVFLKMNSLQTDDTARYFCARGDYGYAMDYWGQGTSVTVSS
VL: DIQMTQSPASLSVSVGETVTITCRASVNIYSNLAWYQQRQGKSPQLLVYAATNLAEGVPSRFSGSGSGTQYSLKINSLQSEDFGSYYCQHFWVTPYTFGGGTKLEIK
notes: Mouse monoclonal (hybridoma antibody; heavy chain also recloned with mouse IgG2a Fc); also called mu31A5
Take B10: the binding result with rhesus monkey CRTh2 [1] and with cynomolgus monkey CRTh2 [2] was “no binding (tested: 20 ug/ml)” in each case.
